The term Kd denotes the constant that tells how readily two partners part at equilibrium. The low end stands for tighter binding, the high end for weaker binding.

The chains are these.
T1: PUF4 RNA-binding domain (Saccharomyces cerevisiae, UniProt P25339 537-888)
T1 sequence: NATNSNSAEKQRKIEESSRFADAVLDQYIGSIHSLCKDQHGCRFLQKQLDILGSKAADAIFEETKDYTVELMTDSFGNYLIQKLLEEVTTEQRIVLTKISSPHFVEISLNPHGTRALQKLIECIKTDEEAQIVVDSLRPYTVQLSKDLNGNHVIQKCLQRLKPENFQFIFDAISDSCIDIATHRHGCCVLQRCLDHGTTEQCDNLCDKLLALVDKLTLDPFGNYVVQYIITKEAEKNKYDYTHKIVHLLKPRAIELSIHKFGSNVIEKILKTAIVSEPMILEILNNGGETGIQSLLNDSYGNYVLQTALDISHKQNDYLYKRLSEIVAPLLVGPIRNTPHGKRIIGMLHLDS

B1: Id_iii_S2_P3E.5_K3.1_C3.3_[T-3A]_H3.1_A3.1_F3.1_T3.2 (ssRNA)
RNA: UUUGAUUAAUAUGAUAUCGUUCUUUCUACUUGUAUAUAUAUUCUUUCUCGAUAUCAUAUUAAUCUUU
B2: Id_iii_S2_P3E.7_K3.3_C3.3_[T-3G]_H3.3_A3.1_F3.1_T3.2 (ssRNA)
RNA: UUUGAUUAAUAUGAUAUCGUUCUUUCUGCUACACUAUAUAUUCUUUCUCGAUAUCAUAUUAAUCUUU
B3: Id_iii_S2_P3E.6_K3.2_C3.3_H3.2_A3.1_F3.1_T3.2_[T9C] (ssRNA)
RNA: UUUGAUUAAUAUGAUAUCGUUCUUUCUUCUUAUAUAUACAUUCUUUCUCGAUAUCAUAUUAAUCUUU
B4: Id_iii_S2_P3E.5_K3.1_C3.3_[T-1A]_H3.1_A3.1_F3.1_T3.2 (ssRNA)
RNA: UUUGAUUAAUAUGAUAUCGUUCUUUCUUCAUGUAUAUAUAUUCUUUCUCGAUAUCAUAUUAAUCUUU
B5: Id_iii_S2_P3E.5_K3.1_C3.3_[C-2G]_H3.1_A3.1_F3.1_T3.2 (ssRNA)
RNA: UUUGAUUAAUAUGAUAUCGUUCUUUCUUGUUGUAUAUAUAUUCUUUCUCGAUAUCAUAUUAAUCUUU
B6: Id_iii_S2_P3E.6_K3.2_C3.3_[C-2T]_H3.2_A3.1_F3.1_T3.2 (ssRNA)
RNA: UUUGAUUAAUAUGAUAUCGUUCUUUCUUUUUAUAUAUAUAUUCUUUCUCGAUAUCAUAUUAAUCUUU
B7: Id_iii_S2_P3E.6_K3.2_C3.3_[T-1C]_H3.2_A3.1_F3.1_T3.2 (ssRNA)
RNA: UUUGAUUAAUAUGAUAUCGUUCUUUCUUCCUAUAUAUAUAUUCUUUCUCGAUAUCAUAUUAAUCUUU
B8: Id_iii_S2_P3E.6_K3.2_C3.3_[T-3A]_H3.2_A3.1_F3.1_T3.2 (ssRNA)
RNA: UUUGAUUAAUAUGAUAUCGUUCUUUCUACUUAUAUAUAUAUUCUUUCUCGAUAUCAUAUUAAUCUUU
B9: Id_iii_S2_P3E.6_K3.2_C3.3_[T-1A]_H3.2_A3.1_F3.1_T3.2 (ssRNA)
RNA: UUUGAUUAAUAUGAUAUCGUUCUUUCUUCAUAUAUAUAUAUUCUUUCUCGAUAUCAUAUUAAUCUUU
B10: Id_iii_S2_P3E.6_K3.2_C3.3_H3.2_A3.1_F3.1_T3.2_[A10T] (ssRNA)
RNA: UUUGAUUAAUAUGAUAUCGUUCUUUCUUCUUAUAUAUAUUUUCUUUCUCGAUAUCAUAUUAAUCUUU
B11: Id_iii_S2_P3E.5_K3.1_C3.3_H3.1_A3.1_F3.1_T3.2_[A10G] (ssRNA)
RNA: UUUGAUUAAUAUGAUAUCGUUCUUUCUUCUUGUAUAUAUGUUCUUUCUCGAUAUCAUAUUAAUCUUU
B12: Id_iii_S2_P3E.7_K3.3_C3.3_[C-2G]_H3.3_A3.1_F3.1_T3.2 (ssRNA)
RNA: UUUGAUUAAUAUGAUAUCGUUCUUUCUUGUACACUAUAUAUUCUUUCUCGAUAUCAUAUUAAUCUUU
B13: Id_iii_S2_P3E.5_K3.1_C3.3_[C-2T]_H3.1_A3.1_F3.1_T3.2 (ssRNA)
RNA: UUUGAUUAAUAUGAUAUCGUUCUUUCUUUUUGUAUAUAUAUUCUUUCUCGAUAUCAUAUUAAUCUUU
B14: Id_iii_S2_P3E.5_K3.1_C3.3_H3.1_A3.1_F3.1_T3.2_[T9A] (ssRNA)
RNA: UUUGAUUAAUAUGAUAUCGUUCUUUCUUCUUGUAUAUAAAUUCUUUCUCGAUAUCAUAUUAAUCUUU
B15: Id_iii_S2_P3E.6_K3.2_C3.3_H3.2_A3.1_F3.1_T3.2_[T9A] (ssRNA)
RNA: UUUGAUUAAUAUGAUAUCGUUCUUUCUUCUUAUAUAUAAAUUCUUUCUCGAUAUCAUAUUAAUCUUU
B16: Id_iii_S2_P3E.7_K3.3_C3.3_[T-3A]_H3.3_A3.1_F3.1_T3.2 (ssRNA)
RNA: UUUGAUUAAUAUGAUAUCGUUCUUUCUACUACACUAUAUAUUCUUUCUCGAUAUCAUAUUAAUCUUU

The target in the data set is T1, PUF4 RNA-binding domain. As to the kind of experiment: Mg; RNA-MaP; 20 mM Na-HEPES pH 7.4, 30 mM KOAc, 0.75 mM MgCl2, 0.1% Tween-20, 5% glycerol, 0.1 mg/mL BSA, 2 mM DTT; 25 C; 0.0125-409.6 nM protein. To be noted: tags: N-His6-TEV cleaved; C-SNAP kept, Cy3B-labelled; label: tethered on chip by stalled RNA polymerase.
Turning to UCUCUUUCUUGUAUUAUUAUCUCUCUU (ssRNA) [Id_iii_S1_P5E.5_K5.1_C5.3_H5.1_A5.1_F5.1_T5.2_[A12C]], the Kd was 6 nM.

UCUCUUUCUUGUAAUAUUAAAUCUCUU (ssRNA) [Id_iii_S1_P5E.8_K5.4_C5.3_H5.1_A5.2_F5.1_T5.2_[T11A]] gave a Kd of 11.3 nM. Regarding UCUCUUUCUUGUAUUAUUAAAUCUCUU (ssRNA) [Id_iii_S1_P5E.5_K5.1_C5.3_H5.1_A5.1_F5.1_T5.2_[T11A]], the affinity, expressed as Kd, was 11.1 nM. The value for UCUCUUUCUUGUAUUUAAAUUCUCUU (ssRNA) [Id_iii_S1_P4E.9_K4.5_C4.3_H4.1_A4.2_F4.2_T4.2_[G10A]] was 96.9 nM; that for UCUCUUUCAUGUAUUUAAGUUCUCUU (ssRNA) [Id_iii_S1_P4E.9_K4.5_C4.3_[T-1A]_H4.1_A4.2_F4.2_T4.2] was 648 nM. The figure for UCUCUUUCUACACUUAUUACAUCUCUU (ssRNA) [Id_iii_S1_P5E.7_K5.3_C5.3_H5.3_A5.1_F5.1_T5.2_[T11C]] is above 2300 nM. In turn, UCUCUUUCUUGUAAUAUUAUCUCUCUU (ssRNA) [Id_iii_S1_P5E.8_K5.4_C5.3_H5.1_A5.2_F5.1_T5.2_[A12C]] yielded a Kd of 6.29 nM. In other words, the single-digit nanomolar range. The figure for UCUCUUUCUUGUAUUAUUAUUUCUCUU (ssRNA) [Id_iii_S1_P5E.5_K5.1_C5.3_H5.1_A5.1_F5.1_T5.2_[A12T]] is 4.34 nM. The molecule UCUCUUUCCUGUAAUAUUAUAUCUCUU (ssRNA) [Id_iii_S1_P5E.8_K5.4_C5.3_[T-1C]_H5.1_A5.2_F5.1_T5.2] showed a Kd of 7.32 nM. UCUCUUUCUUGUAUUUAACUUCUCUU (ssRNA) [Id_iii_S1_P4E.9_K4.5_C4.3_H4.1_A4.2_F4.2_T4.2_[G10C]] returned an equilibrium dissociation constant (Kd) of 70.1 nM. The molecule UCUCUUUCUUGUAAUAAAAAAUCUCUU (ssRNA) [Id_iii_S1_P5E.9_K5.5_C5.3_H5.1_A5.2_F5.2_T5.2_[T11A]] registered a dissociation constant Kd of 412 nM.

Molecule UCUCUUUCUUAUAUUAUUACAUCUCUU (ssRNA) [Id_iii_S1_P5E.6_K5.2_C5.3_H5.2_A5.1_F5.1_T5.2_[T11C]] returned a Kd of 450 nM. The figure for UCUCUUACUUGUAAUAUUAUAUCUCUU (ssRNA) [Id_iii_S1_P5E.8_K5.4_C5.3_[T-3A]_H5.1_A5.2_F5.1_T5.2] is 13.7 nM; for UCUCUUUCUUAUAUUAUUAUCUCUCUU (ssRNA) [Id_iii_S1_P5E.6_K5.2_C5.3_H5.2_A5.1_F5.1_T5.2_[A12C]] it is 471 nM.

With UCUCUUACUACACUUAUUAUAUCUCUU (ssRNA) [Id_iii_S1_P5E.7_K5.3_C5.3_[T-3A]_H5.3_A5.1_F5.1_T5.2], the equilibrium dissociation constant (Kd) was 1570 nM.

In the case of UCUCUUUCUUGUAAUAUUAUGUCUCUU (ssRNA) [Id_iii_S1_P5E.8_K5.4_C5.3_H5.1_A5.2_F5.1_T5.2_[A12G]], the Kd was 10 nM.

Molecule UCUCUUUCUUGUAAUAUUAUUUCUCUU (ssRNA) [Id_iii_S1_P5E.8_K5.4_C5.3_H5.1_A5.2_F5.1_T5.2_[A12T]] had an equilibrium dissociation constant (Kd) of 7.29 nM. The value for UCUCUUUCUACACUUAUUAUUUCUCUU (ssRNA) [Id_iii_S1_P5E.7_K5.3_C5.3_H5.3_A5.1_F5.1_T5.2_[A12T]] was above 2300 nM. The figure for UCUCUUUGUCUUGUUAUCUCUU (ssRNA) [Ib_S1_P5E.1_K5.1_C5.1_H5.1_[A4C]_A5.1_[A7G]_F5.1_T5.1] is 475 nM; for UCUCUUUCCACACUUAUUAUAUCUCUU (ssRNA) [Id_iii_S1_P5E.7_K5.3_C5.3_[T-1C]_H5.3_A5.1_F5.1_T5.2] it is above 2300 nM; for UCUCUUUCUACACUUAUUAUGUCUCUU (ssRNA) [Id_iii_S1_P5E.7_K5.3_C5.3_H5.3_A5.1_F5.1_T5.2_[A12G]] it is above 2300 nM. The value for UCUCUUUGUUUAAUUAUCUCUU (ssRNA) [Ib_S1_P5E.1_K5.1_C5.1_H5.1_[A4T]_A5.1_[T6A]_F5.1_T5.1] was 44.6 nM. In the case of UCUCUUUAUACACUUAUUAUAUCUCUU (ssRNA) [Id_iii_S1_P5E.7_K5.3_C5.3_[C-2A]_H5.3_A5.1_F5.1_T5.2], the dissociation constant Kd is 720 nM. The value for UCUCUUUGUACACUUAUUAUAUCUCUU (ssRNA) [Id_iii_S1_P5E.7_K5.3_C5.3_[C-2G]_H5.3_A5.1_F5.1_T5.2] was 3.9 nM; that for B1 was 1.18 nM. The figure for B2 is 156 nM. The figure for B3 is 168 nM; for B4 it is 1.7 nM; for B5 it is 2.14 nM. The molecule B6 had a Kd of 111 nM. B7 registered a Kd of 28.7 nM. The figure for B8 is 91.2 nM; for B9 it is 122 nM; for B10 it is 43.5 nM. The figure for B11 is 2.21 nM; for B12 it is 0.454 nM; for B13 it is 1.52 nM.

B14 returned a dissociation constant (Kd) of 3.53 nM. The molecule B15 displayed a dissociation constant (Kd) of 321 nM.

Take B16: binding was characterised by a dissociation constant (Kd) of 213 nM.

Molecule UCUCUUUCUUGUAAUAAAAUCUCUCUU (ssRNA) [Id_iii_S1_P5E.9_K5.5_C5.3_H5.1_A5.2_F5.2_T5.2_[A12C]] gave a Kd of 411 nM. Compared with the last molecule, the Kd is about 1.9-fold higher. Molecule UCUCUUUAUUGUAAUAUUAUAUCUCUU (ssRNA) [Id_iii_S1_P5E.8_K5.4_C5.3_[C-2A]_H5.1_A5.2_F5.1_T5.2] registered a Kd of 9.11 nM. Compared with the last molecule, the Kd is about 45-fold lower. The figure for UCUCUUUCUUAUAUUAUUAUUUCUCUU (ssRNA) [Id_iii_S1_P5E.6_K5.2_C5.3_H5.2_A5.1_F5.1_T5.2_[A12T]] is 372 nM; for UCUCUUUGUAUUUUUAUCUCUU (ssRNA) [Ia_S1_P5E.1_K5.1_C5.1_H5.1_A5.1_[A7T]_F5.1_T5.1] it is 3.57 nM; for UCUCUUCCUUGUAAUAUUAUAUCUCUU (ssRNA) [Id_iii_S1_P5E.8_K5.4_C5.3_[T-3C]_H5.1_A5.2_F5.1_T5.2] it is 8.43 nM. The molecule UCUCUUCCUACACUUAUUAUAUCUCUU (ssRNA) [Id_iii_S1_P5E.7_K5.3_C5.3_[T-3C]_H5.3_A5.1_F5.1_T5.2] yielded a Kd above 2300 nM. The figure for UCUCUUUGUCUUCUUAUCUCUU (ssRNA) [Ib_S1_P5E.1_K5.1_C5.1_H5.1_[A4C]_A5.1_[A7C]_F5.1_T5.1] is 1090 nM; for UCUCUUUCUUAUAUUAUUAAAUCUCUU (ssRNA) [Id_iii_S1_P5E.6_K5.2_C5.3_H5.2_A5.1_F5.1_T5.2_[T11A]] it is 551 nM. The value for UCUCUUUGUGUUUUUAUCUCUU (ssRNA) [Ib_S1_P5E.1_K5.1_C5.1_H5.1_[A4G]_A5.1_[A7T]_F5.1_T5.1] was 26.8 nM; that for UCUCUUUCUUGUAUUAUUAUGUCUCUU (ssRNA) [Id_iii_S1_P5E.5_K5.1_C5.3_H5.1_A5.1_F5.1_T5.2_[A12G]] was 8.55 nM.

The molecule UCUCUUUGUCUUUUUAUCUCUU (ssRNA) [Ib_S1_P5E.1_K5.1_C5.1_H5.1_[A4C]_A5.1_[A7T]_F5.1_T5.1] displayed a Kd of 113 nM. This Kd is about 13-fold higher than that of the molecule before.

Source of the values: PMC9352680, “A comprehensive thermodynamic model for RNA binding by the Saccharomyces cerevisiae Pumilio protein PUF4”.
